According to paper PMC7647119:

Target: T1, MADS29-His (Oryza sativa) (UniProt Q6H711)
T1 sequence: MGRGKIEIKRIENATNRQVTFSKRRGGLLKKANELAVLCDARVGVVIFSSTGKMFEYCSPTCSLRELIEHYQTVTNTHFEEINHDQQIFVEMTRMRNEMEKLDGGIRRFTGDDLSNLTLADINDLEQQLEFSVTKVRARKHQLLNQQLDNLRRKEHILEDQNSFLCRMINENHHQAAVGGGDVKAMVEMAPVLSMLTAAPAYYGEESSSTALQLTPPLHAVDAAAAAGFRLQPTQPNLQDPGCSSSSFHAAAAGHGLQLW
Test: EMSA
Details: LightShift Chemiluminescent EMSA Kit per manufacturer; buffer, salt, pH and temperature not stated

Sequence | binding
ATTTTGCTCATTTGGTATAGATCTTTCTTACATATATAAGACTGATCTCTATAGTGGTGA (double strand) [POsAsp1 -1412 CArG probe] | binds
TCTATAGACTAGTCAGCATTTTTTTTAGCTCCATATTTGGATTTGTCAACTTCAGAAAAG (double strand) [POsAsp1 -770 CArG probe] | binds
